Results: publication PMC8205485

Assays:
[1] = system: T1, XssQ (Synechocystis sp. PCC 6803), ORF:81bb7109; test: competition; conditions: EMSA, 30 min at room temperature; buffer, salt and pH not given (refers to Hirose 2010, Maeda 2014, Midorikawa 2009)
T1 sequence: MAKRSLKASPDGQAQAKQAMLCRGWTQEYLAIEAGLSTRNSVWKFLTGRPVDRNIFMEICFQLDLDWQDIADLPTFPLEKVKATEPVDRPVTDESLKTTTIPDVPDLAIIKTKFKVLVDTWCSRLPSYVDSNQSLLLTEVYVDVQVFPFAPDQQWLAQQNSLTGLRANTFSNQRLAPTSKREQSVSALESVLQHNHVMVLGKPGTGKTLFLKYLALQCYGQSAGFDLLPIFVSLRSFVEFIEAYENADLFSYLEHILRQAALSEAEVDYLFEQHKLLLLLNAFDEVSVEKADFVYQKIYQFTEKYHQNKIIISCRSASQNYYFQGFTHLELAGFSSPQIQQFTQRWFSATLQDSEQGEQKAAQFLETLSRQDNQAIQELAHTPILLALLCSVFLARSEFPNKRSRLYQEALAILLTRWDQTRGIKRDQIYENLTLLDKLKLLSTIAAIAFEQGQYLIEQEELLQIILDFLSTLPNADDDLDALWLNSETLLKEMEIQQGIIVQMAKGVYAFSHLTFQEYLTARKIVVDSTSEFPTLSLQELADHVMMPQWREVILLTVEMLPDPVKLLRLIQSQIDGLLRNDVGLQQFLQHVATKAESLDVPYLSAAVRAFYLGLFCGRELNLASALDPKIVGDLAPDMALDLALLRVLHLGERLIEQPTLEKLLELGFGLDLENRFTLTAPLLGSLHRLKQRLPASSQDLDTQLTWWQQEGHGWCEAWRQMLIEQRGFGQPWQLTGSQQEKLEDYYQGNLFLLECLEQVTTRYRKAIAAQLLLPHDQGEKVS

[2] = system: T1, XssQ (Synechocystis sp. PCC 6803), ORF:81bb7109; test: EMSA; conditions: 30 min at room temperature, buffer, salt and pH not given (refers to Hirose 2010, Maeda 2014, Midorikawa 2009)

In the case of “ATCTTTAAAGCCCCAGTCCCGATCGCCAGCGGTTAAACAGGTAAAAAAACAGAAGCAGAAATCTAGTGAGCAGGGGAAACTCAAAACCAAGCCGGGGCGCTCAAAGTCAGGGTCAGGCAAAAGGTCTAAAGTTAGACGCAAAGTTGTACATAGGGCAGGCACGAAATCAGACAGCGATCCATCAAGCTAAGAACAGGTTGCAATTGCCCATCTCACGATCGCCGTCACGCCCCCATGAACACTTCTTTCCT (double strand) [xssE upstream probe / native competitor]”, the binding [1] is reported as “binds” and the binding [2] is reported as “binds”.
